The results in this text go back to the supplement of paper PMC5998384.

Data set [1] relates to HeLa Kyoto. The data set is described as follows: solubility change mitosis vs G1/S (difference of NP-40 vs SDS log2 ratios) (log2 ratio difference); higher = more soluble in mitosis.
The subject of data set [2] is HeLa Kyoto. The data set is described as follows: solubility in G1/S (NP-40 vs SDS abundance) (log2 ratio); higher = more soluble. Particulars: cell cycle stage: G1/S.
Data set [3] has as its system HeLa Kyoto. The data set is described as follows: melting temperature (median over replicates), in situ; higher = more thermally stable.
The subject of data set [4] is HeLa Kyoto. The data set is described as follows: thermal stability score vs G1/S (z-score of summed log2 fold changes over temperatures); higher = more thermally stable than in G1/S.
Setting [5] is: cell cycle stage: early G1 (4.5 h after nocodazole release).
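For melting temperature (median over replicates), in situ in this document: HeLa Kyoto cells synchronized by double thymidine or nocodazole block, proteins quantified by TMT10plex mass spectrometry, three independent biological replicates.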
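For solubility change mitosis vs G1/S (difference of NP-40 vs SDS log2 ratios) in this document: synchronized HeLa Kyoto cells (double thymidine block for G1/S, nocodazole release for mitosis), protein amounts in NP-40 versus SDS lysates quantified by mass spectrometry, three biological replicates.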
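For solubility in G1/S (NP-40 vs SDS abundance) in this document: HeLa Kyoto cells arrested at G1/S by double thymidine block, proteins quantified by TMT10plex mass spectrometry in mild NP-40 versus SDS extracts, three biological replicates.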
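For thermal stability score vs G1/S (z-score of summed log2 fold changes over temperatures) in this document: synchronized HeLa Kyoto cells, proteins quantified by TMT10plex mass spectrometry, three biological replicates, mitosis taken 0.5 h after nocodazole release, G1/S directly after double thymidine block.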

Regarding “MDTPENVLQMLEAHMQSYKGNDPLGEWERYIQWVEENFPENKEYLITLLEHLMKEFLDKKKYHNDPRFISYCLKFAEYNSDLHQFFEFLYNHGIGTLSSPLYIAWAGHLEAQGELQHASAVLQRGIQNQAEPREFLQQQYRLFQTRLTETHLPAQARTSEPLHNVQVLNQMITSKSNPGNNMACISKNQGSELSGVISSACDKESNMERRVITISKSEYSVHSSLASKVDVEQVVMYCKEKLIRGESEFSFEELRAQKYNQRRKHEQWVNEDRHYMKRKEANAFEEQLLKQKMDELHKKLHQVVETSHEDLPASQERSEVNPARMGPSVGSQQELRAPCLPVTYQQTPVNMEKNPREAPPVVPPLANAISAALVSPATSQSIAPPVPLKAQTVTDSMFAVASKDAGCVNKSTHEFKPQSGAEIKEGCETHKVANTSSFHTTPNTSLGMVQATPSKVQPSPTVHTKEALGFIMNMFQAPTLPDISDDKDEWQSLDQNEDAFEAQFQKNVRSSGAWGVNKIISSLSSAFHVFEDGNKENYGLPQPKNKPTGARTFGERSVSRLPSKPKEEVPHAEEFLDDSTVWGIRCNKTLAPSPKSPGDFTSAAQLASTPFHKLPVESVHILEDKENVVAKQCTQATLDSCEENMVVPSRDGKFSPIQEKSPKQALSSHMYSASLLRLSQPAAGGVLTCEAELGVEACRLTDTDAAIAEDPPDAIAGLQAEWMQMSSLGTVDAPNFIVGNPWDDKLIFKLLSGLSKPVSSYPNTFEWQCKLPAIKPKTEFQLGSKLVYVHHLLGEGAFAQVYEATQGDLNDAKNKQKFVLKVQKPANPWEFYIGTQLMERLKPSMQHMFMKFYSAHLFQNGSVLVGELYSYGTLLNAINLYKNTPEKVMPQGLVISFAMRMLYMIEQVHDCEIIHGDIKPDNFILGNGFLEQDDEDDLSAGLALIDLGQSIDMKLFPKGTIFTAKCETSGFQCVEMLSNKPWNYQIDYFGVAATVYCMLFGTYMKVKNEGGECKPEGLFRRLPHLDMWNEFFHVMLNIPDCHHLPSLDLLRQKLKKVFQQHYTNKIRALRNRLIVLLLECKRSRK [BUB1]”, the “solubility change mitosis (log2)” value in data set [1] was -0.112. Moreover, in data set [2], the “solubility in G1/S (log2)” value is -0.019. The values for the melting temperature in data set [3] (cell cycle stage: G1/S) and in data set [3] (cell cycle stage: mitosis) were 48.8 °C and 49.9 °C, respectively. Further, the figures for the thermal stability score in data set [4] (setting [5]) and in data set [4] (cell cycle stage: mitosis) were 0.554 and 1.15, respectively.
As to “MDVLAEEFGNLTPEQLAAPIPTVEEKWRLLPAFLKVKGLVKQHIDSFNYFINVEIKKIMKANEKVTSDADPMWYLKYLNIYVGLPDVEESFNVTRPVSPHECRLRDMTYSAPITVDIEYTRGSQRIIRNALPIGRMPIMLRSSNCVLTGKTPAEFAKLNECPLDPGGYFIVKGVEKVILIQEQLSKNRIIVEADRKGAVGASVTSSTHEKKSRTNMAVKQGRFYLRHNTLSEDIPIVIIFKAMGVESDQEIVQMIGTEEHVMAAFGPSLEECQKAQIFTQMQALKYIGNKVRRQRMWGGGPKKTKIEEARELLASTILTHVPVKEFNFRAKCIYTAVMVRRVILAQGDNKVDDRDYYGNKRLELAGQLLSLLFEDLFKKFNSEMKKIADQVIPKQRAAQFDVVKHMRQDQITNGMVNAISTGNWSLKRFKMDRQGVTQVLSRLSYISALGMMTRISSQFEKTRKVSGPRSLQPSQWGMLCPSDTPEGEACGLVKNLALMTHITTDMEDGPIVKLASNLGVEDVNLLCGEELSYPNVFLVFLNGNILGVIRDHKKLVNTFRLMRRAGYINEFVSISTNLTDRCVYISSDGGRLCRPYIIVKKQKPAVTNKHMEELAQGYRNFEDFLHESLVEYLDVNEENDCNIALYEHTINKDTTHLEIEPFTLLGVCAGLIPYPHHNQSPRNTYQCAMGKQAMGTIGYNQRNRIDTLMYLLAYPQKPMVKTKTIELIEFEKLPAGQNATVAVMSYSGYDIEDALVLNKASLDRGFGRCLVYKNAKCTLKRYTNQTFDKVMGPMLDAATRKPIWRHEILDADGICSPGEKVENKQVLVNKSMPTVTQIPLEGSNVPQQPQYKDVPITYKGATDSYIEKVMISSNAEDAFLIKMLLRQTRRPEIGDKFSSRHGQKGVCGLIVPQEDMPFCDSGICPDIIMNPHGFPSRMTVGKLIELLAGKAGVLDGRFHYGTAFGGSKVKDVCEDLVRHGYNYLGKDYVTSGITGEPLEAYIYFGPVYYQKLKHMVLDKMHARARGPRAVLTRQPTEGRSRDGGLRLGEMERDCLIGYGASMLLLERLMISSDAFEVDVCGQCGLLGYSGWCHYCKSSCHVSSLRIPYACKLLFQELQSMNIIPRLKLSKYNE [POLR3B]”, the “solubility change mitosis (log2)” value in data set [1] was -0.161. In addition, the “solubility in G1/S (log2)” value in data set [2] was -0.184. In addition, the values for the melting temperature in data set [3] (cell cycle stage: G1/S) and in data set [3] (cell cycle stage: mitosis) were 48.9 °C and 49.6 °C, respectively. For the same sequence, the thermal stability score came to 0.664 in data set [4] (setting [5]) and 1.01 in data set [4] (cell cycle stage: mitosis).
For the sequence “MDVNIAPLRAWDDFFPGSDRFARPDFRDISKWNNRVVSNLLYYQTNYLVVAAMMISIVGFLSPFNMILGGIVVVLVFTGFVWAAHNKDVLRRMKKRYPTTFVMVVMLASYFLISMFGGVMVFVFGITFPLLLMFIHASLRLRNLKNKLENKMEGIGLKRTPMGIVLDALEQQEEGINRLTDYISKVKE [ARL6IP5]”, the “solubility change mitosis (log2)” value in data set [1] was -0.126. In addition, the “solubility in G1/S (log2)” value in data set [2] was -0.0879. Moreover, the melting temperature was found to be 56.4 °C in data set [3] (cell cycle stage: G1/S) and 57.5 °C in data set [3] (cell cycle stage: mitosis). The thermal stability score in data set [4] (setting [5]) came out at 0.94; in data set [4] (cell cycle stage: mitosis), 0.797.
Take “MDVTSSSGGGGDPRQIEETKPLLGGDVSAPEGTKMGAVPCRRALLLCNGMRYKLLQEGDIQVCVIRHPRTFLSKILTSKFLRRWEPHHLTLADNSLASATPTGYMENSVSYSAIEDVQLLSWENAPKYCLQLTIPGGTVLLQAANSYLRDQWFHSLQWKKKIYKYKKVLSNPSRWEVVLKEIRTLVDMALTSPLQDDSINQAPLEIVSKLLSENTNLTTQEHENIIVAIAPLLENNHPPPDLCEFFCKHCRERPRSMVVIEVFTPVVQRILKHNMDFGKCPRLRLFTQEYILALNELNAGMEVVKKFIQSMHGPTGHCPHPRVLPNLVAVCLAAIYSCYEEFINSRDNSPSLKEIRNGCQQPCDRKPTLPLRLLHPSPDLVSQEATLSEARLKSVVVASSEIHVEVERTSTAKPALTASAGNDSEPNLIDCLMVSPACSTMSIELGPQADRTLGCYVEILKLLSDYDDWRPSLASLLQPIPFPKEALAHEKFTKELKYVIQRFAEDPRQEVHSCLLSVRAGKDGWFQLYSPGGVACDDDGELFASMVHILMGSCYKTKKFLLSLAENKLGPCMLLALRGNQTMVEILCLMLEYNIIDNNDTQLQIISTLESTDVGKRMYEQLCDRQRELKELQRKGGPTRLTLPSKSTDADLARLLSSGSFGNLENLSLAFTNVTSACAEHLIKLPSLKQLNLWSTQFGDAGLRLLSEHLTMLQVLNLCETPVTDAGLLALSSMKSLCSLNMNSTKLSADTYEDLKAKLPNLKEVDVRYTEAW [CMIP]”: the “solubility change mitosis (log2)” value in data set [1] was -0.224. Also, the “solubility in G1/S (log2)” value in data set [2] was found to be 0.271. Moreover, the values for the melting temperature in data set [3] (cell cycle stage: G1/S) and in data set [3] (cell cycle stage: mitosis) were 50.5 °C and 48.7 °C, respectively. Also, the thermal stability score turned out to be 0.861 in data set [4] (setting [5]) and 0.998 in data set [4] (cell cycle stage: mitosis).
